Data: patent publication US20200010571A1 (Janssen / Centocor, published 2020)
Several values for one entry are separate records, joined by “and”; a condition that tells them apart may be missing. Identical values can stand only once.

How the values were obtained:
[1] = molecular target: T1, human IL-17A (recombinant) (human, UniProt Q16552 24-155); assay: cell-based or functional assay
[2] = molecular target: T1, human IL-17A (recombinant); assay: SPR (Biacore 3000), mAb captured by anti-IgG Fc, antigen in solution, 25 C, 1:1 Langmuir
[3] = molecular target: protease-resistant form of human transmembrane TNF-α (lacks amino acids Val1 to Pro12) overexpressed by K2 … (human, UniProt P01375 1-233); assay: cell-based or functional assay
[4] = molecular target: T1, human IL-17A (recombinant); assay: cell-based or functional assay; remark: listed apart in the source
cynomolgus TNF-α [5] = molecular target: T2, cynomolgus TNF-α (cynomolgus, UniProt P79337 77-233); assay: cell-based or functional assay
[6] = molecular target: T3, rhTNF-α (recombinant human, soluble) (human, UniProt P01375 77-233); assay: cell-based or functional assay
[7] = molecular target: T1, human IL-17A (recombinant); assay: competition ELISA: biotinylated rhIL-17A binding to plate-coated rhIL-17RA-Fc
cynomolgus TNF-α [8] = molecular target: T2, cynomolgus TNF-α; assay: SPR (Biacore 3000), mAb captured by anti-IgG Fc, antigen in solution, 1:1 Langmuir
[9] = molecular target: native (endogenous) human TNF-α (human, UniProt P01375 77-233); assay: cell-based or functional assay
[10] = molecular target: T4, recombinant human IL-17A/F heterodimer (human, UniProt Q16552 24-155; Q96PD4 31-163); assay: cell-based or functional assay
recombinant human IL-17F = molecular target: T5, recombinant human IL-17F (human, UniProt Q96PD4 31-163); assay: binding to rhIL-17A in the absence or presence of IL-17F
T5 sequence: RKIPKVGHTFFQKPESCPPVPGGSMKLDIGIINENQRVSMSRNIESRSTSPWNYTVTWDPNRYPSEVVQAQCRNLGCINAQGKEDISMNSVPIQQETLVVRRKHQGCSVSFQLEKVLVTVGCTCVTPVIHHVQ

[11] = molecular target: T3, rhTNF-α (recombinant human, soluble); assay: cell-based or functional assay; remark: listed apart in the source
cynomolgus IL-17A [12] = molecular target: T6, cynomolgus IL-17A (cynomolgus, UniProt Q16552 24-155 (human entry), limits assumed); assay: cell-based or functional assay
T6 chain: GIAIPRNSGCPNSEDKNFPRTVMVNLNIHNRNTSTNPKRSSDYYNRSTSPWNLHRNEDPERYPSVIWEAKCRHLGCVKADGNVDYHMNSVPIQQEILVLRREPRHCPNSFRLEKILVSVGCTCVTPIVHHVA

cynomolgus IL-17A [13] = molecular target: T6, cynomolgus IL-17A; assay: cell-based or functional assay
[14] = molecular target: T4, recombinant human IL-17A/F heterodimer; assay: cell-based or functional assay; remark: listed apart in the source
rat TNF-α = molecular target: T7, rat TNF-α (rat, UniProt P16599 80-235); assay: SPR (Biacore 3000), mAb captured by anti-IgG Fc, antigen in solution
T7 sequence: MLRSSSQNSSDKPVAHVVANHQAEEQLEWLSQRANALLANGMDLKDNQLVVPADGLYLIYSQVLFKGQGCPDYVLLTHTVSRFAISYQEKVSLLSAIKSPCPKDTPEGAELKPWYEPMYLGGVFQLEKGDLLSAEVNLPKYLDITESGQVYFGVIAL

mouse TNF-α = molecular target: T8, mouse TNF-α (mouse, UniProt P06804 80-235); assay: as above
T8 sequence: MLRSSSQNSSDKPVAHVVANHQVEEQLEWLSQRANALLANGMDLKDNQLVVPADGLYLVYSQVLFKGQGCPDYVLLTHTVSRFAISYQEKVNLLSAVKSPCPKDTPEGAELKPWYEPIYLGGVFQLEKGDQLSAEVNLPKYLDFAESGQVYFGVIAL

[15] = molecular target: T1, human IL-17A (recombinant); assay: competition ELISA: biotinylated rhIL-17A binding to plate-coated rhIL-17RA-Fc; Experiment 1; 95% CI 0.09343-0.1160
[16] = molecular target: T3, rhTNF-α (recombinant human, soluble); assay: cell-based or functional assay; remark: listed apart in the source
rat IL-17A [17] = molecular target: T9, rat IL-17A (rat, UniProt Q61453 18-150); assay: SPR (Biacore 3000), mAb captured by anti-IgG Fc, antigen in solution, 1:1 Langmuir;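 note: run in PBS containing BSA and P20 at 25 °C, antigen injected at four dilutions, 3 min association, dissociation followed 20 min to 2 h, two independent experiments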
T9 chain: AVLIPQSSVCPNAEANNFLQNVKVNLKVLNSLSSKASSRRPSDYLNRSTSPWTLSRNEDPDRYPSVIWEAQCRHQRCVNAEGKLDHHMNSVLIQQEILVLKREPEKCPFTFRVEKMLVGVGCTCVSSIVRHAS

mouse IL-17A [18] = molecular target: T10, mouse IL-17A (mouse, UniProt Q62386 26-158); assay: as above
T10 sequence: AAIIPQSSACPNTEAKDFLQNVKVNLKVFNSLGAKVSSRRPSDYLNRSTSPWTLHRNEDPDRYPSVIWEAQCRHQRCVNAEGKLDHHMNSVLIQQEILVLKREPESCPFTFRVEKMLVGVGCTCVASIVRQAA

cynomolgus IL-17A [19] = molecular target: T6, cynomolgus IL-17A; assay: as above
[20] = molecular target: T1, human IL-17A (recombinant); assay: competition ELISA: biotinylated rhIL-17A binding to plate-coated rhIL-17RA-Fc; Experiment 2; 95% CI 0.1474-0.1920
[21] = molecular target: T1, human IL-17A (recombinant); assay: competition ELISA: biotinylated rhIL-17A binding to plate-coated rhIL-17RA-Fc; Experiment 3; 95% CI 0.2433-0.2757
[22] = molecular target: T3, rhTNF-α (recombinant human, soluble); assay: SPR (Biacore 3000), mAb captured by anti-IgG Fc, antigen in solution, 25 C, 1:1 Langmuir
rat IL-17A [23] = molecular target: T9, rat IL-17A; assay: SPR (Biacore 3000)
mouse IL-17A [24] = molecular target: T10, mouse IL-17A; assay: SPR (Biacore 3000)

B1: mAb 9762 (bispecific anti-TNF-α/IL-17A antibody, IgG1) (bispecific antibody)
heavy 1: not shown
light 1: not shown
heavy 2: not shown
light 2: QSVLTQPPSVSVAPGQTARISCSGDNLGDKYANWYQQKPGQAPVLVIYDDIDRPSGIPERFSGSNSGNTATLTISGTQAEDEADYYCGSYDFFLGMIVFGGGTKLTVLGQPKAAPSVTLFPPSSEELQANKATLVCLISDFYPGAVTVAWKADSSPVKAGVETTTPSKQSNNKYAASSYLSLTPEQWKSHRSYSCQVTHEGSTVEKTVAPTECS
IC50 (µg/mL); Inhibition of native IL-17A mediated IL-6 production by NHDF; Experiment 1 [1]: 0.0501 µg/mL | IC50 (µg/mL); Inhibition of native IL-17A mediated IL-6 production by NHDF; Experiment 2 [1]: 0.0445 µg/mL | IC50 (µg/mL); Inhibition of native IL-17A mediated IL-6 production by NHDF; Experiment 3 [1]: 0.049 µg/mL | Kd [2]: 0.022 nM and 0.0453 nM | koff [2]: 4.15e-05 s⁻¹ and 3.99e-05 s⁻¹ | kon [2]: 1.88e+06 M⁻¹ s⁻¹ and 882000 M⁻¹ s⁻¹ | IC50 (nM); KYM-1D4 cells, cytotoxicity mediated by membrane bound human TNF-α; Experiment 1 [3]: 0.82 nM | IC50 (nM); KYM-1D4 cells, cytotoxicity mediated by membrane bound human TNF-α; Experiment 2 [3]: 0.966 nM | IC50 (nM); KYM-1D4 cells, cytotoxicity mediated by membrane bound human TNF-α; Experiment 3 [3]: 0.425 nM | IC50 (µg/mL); Inhibition of native IL-17A mediated GROα production by NHDF; Experiment 1 [4]: 0.081 µg/mL | IC50 (µg/mL); Inhibition of native IL-17A mediated GROα production by NHDF; Experiment 2 [4]: 0.0648 µg/mL | IC50 (µg/mL); Inhibition of native IL-17A mediated GROα production by NHDF; Experiment 3 [4]: 0.0508 µg/mL | IC50 (nM); Inhibition of cyno TNF-α mediated cytotoxicity in WEHI-164 cells; Experiment 1 (cynomolgus TNF-α [5]): 4.42 nM | IC50 (nM); Inhibition of cyno TNF-α mediated cytotoxicity in WEHI-164 cells; Experiment 2 (cynomolgus TNF-α [5]): 20.6 nM | IC50 (nM); Inhibition of cyno TNF-α mediated cytotoxicity in WEHI-164 cells; Experiment 3 (cynomolgus TNF-α [5]): 9.29 nM | fold of IC50 against the parental anti-TNF-α antibodies mAb 9809 and mAb 6696; rhTNF-α-induced cytotoxicity in WEHI-164 cells [6]: ~3 fold | fold IC50 against the parental anti-IL-17A antibodies mAb 4782 and mAb 7206 [7]: ~3 fold | Kd (cynomolgus TNF-α [8]): 0.399 nM and 0.186 nM | koff (cynomolgus TNF-α [8]): 0.000103 s⁻¹ and 0.000127 s⁻¹ | kon (cynomolgus TNF-α [8]): 259000 M⁻¹ s⁻¹ and 681000 M⁻¹ s⁻¹ | IC50 (nM); KYM-1D4 cells, cytotoxicity mediated by endogenous soluble TNF-α; Experiment 1 [9]: 0.346 nM | IC50 (nM); KYM-1D4 cells, cytotoxicity mediated by endogenous soluble TNF-α; Experiment 2 [9]: 0.327 nM | IC50 (nM); KYM-1D4 cells, cytotoxicity mediated by endogenous soluble TNF-α; Experiment 3 [9]: 0.197 nM | IC50 (µg/mL); Inhibition of IL-17A/F mediated IL-6 production by NHDF; Experiment 1 [10]: 0.135 µg/mL | IC50 (µg/mL); Inhibition of IL-17A/F mediated IL-6 production by NHDF; Experiment 2 [10]: 0.174 µg/mL | IC50 (µg/mL); Inhibition of IL-17A/F mediated IL-6 production by NHDF; Experiment 3 [10]: 0.131 µg/mL | binding result (recombinant human IL-17F): no binding | IC50 (nM); KYM-1D4 cells, cytotoxicity mediated by soluble rhTNF-α; Experiment 1 [11]: 0.152 nM | IC50 (nM); KYM-1D4 cells, cytotoxicity mediated by soluble rhTNF-α; Experiment 2 [11]: 0.343 nM | IC50 (nM); KYM-1D4 cells, cytotoxicity mediated by soluble rhTNF-α; Experiment 3 [11]: 0.169 nM | IC50 (µg/mL); Inhibition of cyno IL-17A mediated IL-6 production by NHDF; Experiment 2 (cynomolgus IL-17A [12]): 0.0784 µg/mL | IC50 (µg/mL); Inhibition of cyno IL-17A mediated IL-6 production by NHDF; Experiment 3 (cynomolgus IL-17A [12]): 0.0583 µg/mL | IC50 (µg/mL); Inhibition of cyno IL-17A mediated GROα production by NHDF; Experiment 1 (cynomolgus IL-17A [13]): 0.299 µg/mL | IC50 (µg/mL); Inhibition of cyno IL-17A mediated GROα production by NHDF; Experiment 2 (cynomolgus IL-17A [13]): 0.329 µg/mL | IC50 (µg/mL); Inhibition of cyno IL-17A mediated GROα production by NHDF; Experiment 3 (cynomolgus IL-17A [13]): 0.137 µg/mL | IC50 (µg/mL); Inhibition of IL-17A/F mediated GROα production by NHDF; Experiment 1 [14]: 0.549 µg/mL | IC50 (µg/mL); Inhibition of IL-17A/F mediated GROα production by NHDF; Experiment 2 [14]: 0.436 µg/mL | IC50 (µg/mL); Inhibition of IL-17A/F mediated GROα production by NHDF; Experiment 3 [14]: 0.392 µg/mL | binding result (rat TNF-α): no binding (tested: up to 100 nM) | binding result (mouse TNF-α): no binding (tested: up to 100 nM) | IC50 [15]: 0.104 µg/mL | IC50 (nM); WEHI-164 cells cytotoxicity mediated by soluble rhTNF-α; Experiment 1 [16]: 1.28 nM | IC50 (nM); WEHI-164 cells cytotoxicity mediated by soluble rhTNF-α; Experiment 2 [16]: 2.07 nM | IC50 (nM); WEHI-164 cells cytotoxicity mediated by soluble rhTNF-α; Experiment 3 [16]: 0.631 nM | Kd (rat IL-17A [17]): 15.4 nM | koff (rat IL-17A [17]): 0.00316 s⁻¹ | kon (rat IL-17A [17]): 205000 M⁻¹ s⁻¹ | Kd (mouse IL-17A [18]): 0.997 nM | koff (mouse IL-17A [18]): 0.00103 s⁻¹ | kon (mouse IL-17A [18]): 1.03e+06 M⁻¹ s⁻¹ | Kd (cynomolgus IL-17A [19]): 0.0236 nM and 0.0318 nM | koff (cynomolgus IL-17A [19]): 3.66e-05 s⁻¹ and 4.57e-05 s⁻¹ | kon (cynomolgus IL-17A [19]): 1.55e+06 M⁻¹ s⁻¹ and 1.43e+06 M⁻¹ s⁻¹ | IC50 [20]: 0.168 µg/mL | IC50 [21]: 0.259 µg/mL | Kd [22]: 0.0188 nM and 0.0211 nM | koff [22]: 3.81e-05 s⁻¹ and 3.63e-05 s⁻¹ | kon [22]: 2.02e+06 M⁻¹ s⁻¹ and 1.72e+06 M⁻¹ s⁻¹

B2: mAb 6785 (original parental anti-IL-17A mAb) (antibody, V domains shown)
VH: QVQLLESGGGLVQPGGSLRLSCAASGFTFSSYAMSWVRQAPGKGLEWVSTISLTSGFTYYADSVKGRFTISRDNSKNTLYLQMNSLRAEDTAVYYCARQLTLDVWGQGTLVTVSS
VL: QSVLTQPPSVSVAPGQTARISCSGDNLGDKYANWYQQKPGQAPVLVIYDDIDRPSGIPERFSGSNSGNTATLTISGTQAEDEADYYCGSYDFFLGMIVFGGGTKLTVL
Kd [2]: 0.0309 nM | koff [2]: 4.79e-05 s⁻¹ | kon [2]: 1.55e+06 M⁻¹ s⁻¹ | binding result (rat IL-17A [23]): binds | binding result (mouse IL-17A [24]): binds | Kd (cynomolgus IL-17A [19]): 0.0286 nM | koff (cynomolgus IL-17A [19]): 3.68e-05 s⁻¹ | kon (cynomolgus IL-17A [19]): 1.29e+06 M⁻¹ s⁻¹
